T1: P3028 (VFDEFKPLVEEPQNLIK, SEQ ID NO: 185), His-tagged (human)
T1 construct: Synthetic fragment of human serum albumin (positions 397-413); used in solution as His-tagged peptide PGE73; also called PGE73; not shown: His-tag
T1 peptide: VFDEFKPLVEEPQNLIK


Molecular target: T1, P3028 (VFDEFKPLVEEPQNLIK, SEQ ID NO: …)
Assay: PEPSCAN ELISA; peptide on chip, His-P3028 added;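 note: peroxidase color development with ABTS and H2O2 substrate, OD405 imaged by CCD camera with image processing and taken as raw values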
Procedure: After washing, the peroxidase substrate 2,2′-azine-di-3-ethylbenzthiazoline sulfonate (ABTS) and 2 μL of 3% H2O2 were added. The binding capacity of the mAb was measured as a color development at 405 nm (optical density, OD405). The color development was quantified with a charge-coupled device (CCD)—camera and an image processing system.
The OD405-values obtained by a CCD-camera was considered as raw data values (“rampo values,” “rampo units,” or “rampo scores”). […] First the CCD-camera made a picture of the card before peroxidase coloring and then again a picture after the peroxidase coloring. […] These values were copied into an excel file and labeled as a raw data file. […] Sometimes a well can contain an air-bubble resulting in a false-positive value. If manual inspection of the cards detect an air-bubble the value are set to 0 for well.

| Binder | RAMPO Score |
| --- | --- |
| AKLDTFFVKLSLFTER [AKLDTFFVKLSLFTER (SEQ ID NO: 268)] | 466 rampo units |
| KCLDTFFVKLSLFTER [KCLDTFFVKLSLFTER (SEQ ID NO: 499)] | 295 rampo units |
| KILDTFFVKLSLFTER [KILDTFFVKLSLFTER (SEQ ID NO: 467)] | 331 rampo units |
| KHLDTFFVKLSLFTER [KHLDTFFVKLSLFTER (SEQ ID NO: 418)] | 394 rampo units |
| DKLDTFFVKLSLFTER [DKLDTFFVKLSLFTER (SEQ ID NO: 269)] | 373 rampo units |
| KKLDAFFVKLSLFTER [KKLDAFFVKLSLFTER (SEQ ID NO: 447)] | 346 rampo units |
| KKLDDFFVKLSLFTER [KKLDDFFVKLSLFTER (SEQ ID NO: 500)] | 295 rampo units |
| KKADTFFVKLSLFTER [KKADTFFVKLSLFTER (SEQ ID NO: 282)] | 427 rampo units |
| KDLDTFFVKLSLFTER [KDLDTFFVKLSLFTER (SEQ ID NO: 461)] | 335 rampo units |
| KKEDTFFVKLSLFTER [KKEDTFFVKLSLFTER (SEQ ID NO: 285)] | 528 rampo units |
| KELDTFFVKLSLFTER [KELDTFFVKLSLFTER (SEQ ID NO: 441)] | 349 rampo units |
| KKIDTFFVKLSLFTER [KKIDTFFVKLSLFTER (SEQ ID NO: 289)] | 454 rampo units |
| EKLDTFFVKLSLFTER [EKLDTFFVKLSLFTER (SEQ ID NO: 270)] | 396 rampo units |
| KKCDTFFVKLSLFTER [KKCDTFFVKLSLFTER (SEQ ID NO: 283)] | 432 rampo units |
| HKLDTFFVKLSLFTER [HKLDTFFVKLSLFTER (SEQ ID NO: 272)] | 428 rampo units |
| FKLDTFFVKLSLFTER [FKLDTFFVKLSLFTER (SEQ ID NO: 465)] | 332 rampo units |
| KKFDTFFVKLSLFTER [KKFDTFFVKLSLFTER (SEQ ID NO: 286)] | 393 rampo units |
| KFLDTFFVKLSLFTER [KFLDTFFVKLSLFTER (SEQ ID NO: 421)] | 390 rampo units |
| KGLDTFFVKLSLFTER [KGLDTFFVKLSLFTER (SEQ ID NO: 412)] | 405 rampo units |
| IKLDTFFVKLSLFTER [IKLDTFFVKLSLFTER (SEQ ID NO: 273)] | 483 rampo units |
| KKHDTFFVKLSLFTER [KKHDTFFVKLSLFTER (SEQ ID NO: 288)] | 477 rampo units |
| KALDTFFVKLSLFTER [KALDTFFVKLSLFTER (SEQ ID NO: 485)] | 309 rampo units |
| KKKDTFFVKLSLFTER [KKKDTFFVKLSLFTER (SEQ ID NO: 290)] | 386 rampo units |
| KKLATFFVKLSLFTER [KKLATFFVKLSLFTER (SEQ ID NO: 298)] | 494 rampo units |
| GKLDTFFVKLSLFTER [GKLDTFFVKLSLFTER (SEQ ID NO: 271)] | 367 rampo units |
| KKLDCFFVKLSLFTER [KKLDCFFVKLSLFTER (SEQ ID NO: 304)] | 449 rampo units |
| KKGDTFFVKLSLFTER [KKGDTFFVKLSLFTER (SEQ ID NO: 287)] | 563 rampo units |
| KKLCTFFVKLSLFTER [KKLCTFFVKLSLFTER (SEQ ID NO: 449)] | 344 rampo units |
| KKDDTFFVKLSLFTER [KKDDTFFVKLSLFTER (SEQ ID NO: 284)] | 492 rampo units |

From patent US20180177842A1 (CANIMGUIDE THERAPEUTICS, published 2018)
